In this test the target is T1, TaspCyt (GFP-tagged Taspase1 with a C-terminal nuclear export signal) (human, UniProt Q9H6P5 1-420).
T1 construct: Threonine Aspartase 1 (Taspase1), human, 420 aa; open reading frame cloned from MV4;11 and THP-1 cells; Still catalytically active, so probably processed in cells into α- and β-subunits; also called GFP-TaspCyt; pTaspcyt; source: HeLa, transfected, in living cells; not shown: NES (strong nuclear export signal), C-terminal, kept
T1 sequence (looked up): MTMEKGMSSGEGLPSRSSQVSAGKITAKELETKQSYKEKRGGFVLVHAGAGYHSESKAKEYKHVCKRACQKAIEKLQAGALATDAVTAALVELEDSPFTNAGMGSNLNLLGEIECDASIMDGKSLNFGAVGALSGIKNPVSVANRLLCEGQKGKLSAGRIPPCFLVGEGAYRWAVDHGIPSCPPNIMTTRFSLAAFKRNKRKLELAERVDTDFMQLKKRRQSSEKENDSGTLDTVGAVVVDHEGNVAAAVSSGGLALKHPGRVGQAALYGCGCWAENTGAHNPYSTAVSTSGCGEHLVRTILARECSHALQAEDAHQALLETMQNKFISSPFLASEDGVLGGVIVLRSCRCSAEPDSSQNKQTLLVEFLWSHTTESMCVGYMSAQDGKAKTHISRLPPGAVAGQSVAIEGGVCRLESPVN
The test can be described thus: translocation-based protein interaction assay; living HeLa transfectants, 24 h after transfection; nuclear/nucleolar recruitment of a cytoplasmic fluorescent fusion by a nuclear/nucleolar fusion; fluorescence microscopy, and confocal microscopy with the Manders overlap coefficient R. The note with it: partners not purified.

Changes are numbered by the printed parent chain. In names and notes the source's numbering stands.

We go through 3 molecules from article PMC3343046, “Overexpression of the Catalytically Impaired Taspase1^T234V or Taspase1^D233A Variants Does Not Have a Dominant Negative Effect in T(4;11) Leukemia Cells” (PLoS ONE, 2012).

B1: Taspase1-mCherry (wild type) (enzyme, human, UniProt Q9H6P5 1-420, looked up)
chain: T1 sequence (looked up)
notes: Threonine Aspartase 1 (Taspase1), human, 420 aa; open reading frame cloned from MV4;11 and THP-1 cells; The wild-type proenzyme is autoproteolytically processed in cells into α- and β-subunits; also called Tasp-mCherry; Tasp-mCh; source: HeLa, transfected, in living cells
Take B1: the “Manders overlap coefficient R” value worked out at 0.387.

B2: Tasp^T234V-mCherry (enzyme, human, UniProt Q9H6P5 1-420, looked up)
chain: T1 sequence (looked up) with T234V
notes: Threonine Aspartase 1 (Taspase1), human, 420 aa, with Thr234 changed to Val; Not autoprocessed; stays a proenzyme; also called Taspase1^T234V-mCherry; catalytically dead Taspase1 mutant; source: HeLa, transfected, in living cells
For the molecule B2, the “Manders overlap coefficient R” value turned out to be 0.388.

B3: Tasp^D233A-mCherry (enzyme, human, UniProt Q9H6P5 1-420, looked up)
chain: T1 sequence (looked up) with D233A
notes: Threonine Aspartase 1 (Taspase1), human, 420 aa, with Asp233 changed to Ala; Impaired in autoproteolytic cis-cleavage; also called Taspase1^D233A-mCherry; highly attenuated Taspase1 variant; source: HeLa, transfected, in living cells
As to B3, the “Manders overlap coefficient R” value turned out to be 0.394.
